Measured values reported in the Human Domainome abundance scans (Beltran et al. 2025).
± gives the uncertainty stated by the source.

B1: POU domain, class 2, transcription factor 3, residues 186 to 260; numbered along this chain, Q9UKI9 (parent)
chain: SDLEELEKFAKTFKQRRIKLGFTQGDVGLAMGKLYGNDFSQTTISRFEALNLSFKNMCKLKPLLEKWLNDAESSP

Variants of: B1
Assay: abundance fitness (aPCA) (normalised: wild type 0, dead -1); higher = more abundant; growth selection in yeast, the domain comes from the species named
Details: Homo sapiens

Variant	abundance fitness
Q41G	0.009 ± 0.023
Q41V	-0.081 ± 0.026
Q41P	-0.03 ± 0.035
Q41F	-0.037 ± 0.06
Q41K	0.051 ± 0.037
Q41R	-0.001 ± 0.022
Q41T	-0.04 ± 0.033
Q41C	-0.062 ± 0.053
Q41M	-0.055 ± 0.031
Q41L	-0.117 ± 0.026
A49T	-0.253 ± 0.25
A49P	-0.384 ± 0.21
A49Q	0.133 ± 0.27
A49F	-0.274 ± 0.29
A49H	0.014 ± 0.15
A49V	0.011 ± 0.16
A49R	-0.036 ± 0.13
A49S	0.089 ± 0.17
A49M	-0.201 ± 0.11
A49K	-0.315 ± 0.4
A49L	-0.197 ± 0.12

Variant	abundance fitness
R16G	-0.147 ± 0.11
G25C	0.105 ± 0.3
G25D	-0.436 ± 0.28
G25V	-0.161 ± 0.27
F9S	-0.153 ± 0.29
F9V	-0.441 ± 0.2
F9L	-0.514 ± 0.44
F9G	-0.387 ± 0.28
L6F	-0.229 ± 0.32
L6S	-0.16 ± 0.39
M31C	-0.583 ± 0.31
M31R	-0.746 ± 0.37
F47L	-0.098 ± 0.037
F47V	-0.346 ± 0.037
F47G	-0.925 ± 0.063
F47T	-0.812 ± 0.13
F47A	-0.712 ± 0.069
F47C	-0.845 ± 0.14
F47D	-0.985 ± 0.32
F47E	-0.942 ± 0.13
F47Q	-1.22 ± 0.34

Variant	abundance fitness
F47N	-0.932 ± 0.34
F47W	-0.27 ± 0.045
F47R	-1.08 ± 0.092
F47I	-0.433 ± 0.11
F47P	-1.09 ± 0.25
F47K	-1.15 ± 0.28
F47M	-0.279 ± 0.053
F47S	-0.915 ± 0.17
F47Y	-0.222 ± 0.066
N37Y	-0.157 ± 0.047
N37G	0.024 ± 0.021
N37W	-0.07 ± 0.027
N37I	-0.039 ± 0.057
N37V	-0.027 ± 0.024
N37H	0.04 ± 0.044
N37R	0.027 ± 0.023
N37A	0.02 ± 0.027
N37C	-0.027 ± 0.042
N37T	-0.013 ± 0.033
N37D	0.023 ± 0.039
N37M	-0.025 ± 0.031

Variant	abundance fitness
N37F	-0.139 ± 0.05
N37E	0.003 ± 0.027
T23S	0.026 ± 0.14
T23A	-0.157 ± 0.47
Q15A	0.474 ± 0.32
L20K	-0.591 ± 0.48
T12Q	0.01 ± 0.13
T12N	0.063 ± 0.13
T12R	-0.018 ± 0.11
S1F	-0.062 ± 0.2
G36C	-0.18 ± 0.41
G36S	0.1 ± 0.1
E48M	-0.798 ± 0.1
E48F	-0.708 ± 0.12
E48D	-1.11 ± 0.39
E48P	-0.994 ± 0.12
E48W	-1.17 ± 0.38
E48N	-0.871 ± 0.18
E48I	-1.02 ± 0.18
E48L	-0.836 ± 0.08
E48S	-0.912 ± 0.086
